Laboratory results from publication doi:10.1101/2021.11.15.468682.

Biological target: T1, HsPlk4 PB3 (aa 884-970) (Homo sapiens), O00444
T1 chain: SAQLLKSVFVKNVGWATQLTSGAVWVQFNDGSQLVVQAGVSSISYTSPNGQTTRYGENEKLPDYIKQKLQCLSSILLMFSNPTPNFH
Assay: SEC-MALS
Details: remark: other sources report otherwise

- stoichiometry N: 2
B1: HsPlk4 PB3 (aa 884-970), O00444 884-970 (domain or fragment)
chain: SAQLLKSVFVKNVGWATQLTSGAVWVQFNDGSQLVVQAGVSSISYTSPNGQTTRYGENEKLPDYIKQKLQCLSSILLMFSNPTPNFH
